In paper PMC12207370, “Macrocyclic Peptide Probes for Immunomodulatory Protein CD59: Potent Modulators of Bacterial Toxin Activity and Antibody‐Dependent Cytotoxicity” (Angewandte Chemie (International Ed. in English), 2025):

Biological target: T1, biotinylated CD59 (Homo sapiens, UniProt P13987)
T1 construct: Recombinant soluble human CD59 with an additional C-terminal cysteine residue
T1 sequence (P13987 26-102 limits assumed): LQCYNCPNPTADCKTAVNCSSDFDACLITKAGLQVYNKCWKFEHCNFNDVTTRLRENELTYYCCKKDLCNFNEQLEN
Experiment: mRNA-display cyclic peptide screen against CD59-biotin, NGS abundance after 6th selection round
Conditions: for Percentage Seq I: counts normalised by total counts of sample Seq I; for Percentage Seq I / Percentage Seq II: percentage of the pool; for Percentage Seq I / Percentage Seq II / Percentage Average / Percentage of the pool, averaged across the two sequencing samples / Percentage of the pool, Seq I / Percentage of the pool, Seq II: sheet R6; for Percentage Seq II: counts normalised by total counts of sample Seq II; for Percentage Average: percentage of the pool averaged across the two sequencing samples; for Counts Seq I / Counts Seq II: raw NGS counts of peptide sequence; for Counts Seq I: sequencing sample Seq I; for Counts Seq I / Counts Seq II / Counts (raw counts for peptide sequence), Seq I / Counts (raw counts for peptide sequence), Seq II: sheet R6 (6th selection round); for Counts Seq II: sequencing sample Seq II; for Counts (raw counts for peptide sequence), Seq I: NGS sample Seq I; for Counts (raw counts for peptide sequence), Seq II: NGS sample Seq II; for Percentage of the pool, averaged across the two sequencing samples: average of Seq I and Seq II; for Percentage of the pool, Seq I: counts normalised by total counts of NGS sample Seq I; for Percentage of the pool, Seq II: counts normalised by total counts of NGS sample Seq II
Source text: To discover novel non‐protein CD59 ligands, we screened a library of 10^12 cyclic peptides against CD59 using mRNA‐display (Figure 2a).^[ [23], [24], [25], [26], [27], [28], [29] ^] Briefly, an mRNA library was designed in which the start codon was reprogrammed from Met to N‐chloroacetyl‐D‐Tyr (ClAc‐D‐Tyr), followed by 10–12 randomly encoded natural amino acids, a Cys residue, a (GlySer)3 linker, and a stop codon. […] The total library diversity was 1.51 × 10^13 molecules, comprising 5.02 × 10^12 molecules of each macrocycle size, covering a subset of the maximum theoretical diversity of this library design. Following in vitro translation, ClAc‐D‐Tyr spontaneously reacts with either the C‐terminal Cys or a Cys in the random region, yielding macrocyclic thioether peptides. Hits from the library were identified through iterative enrichment and amplification against biotinylated CD59, then immobilized on streptavidin beads. Fifteen hit sequences (CP‐01 to CP‐15), enriched with abundance >1% relative to the total pool of recovered binders after the 6th round of selection, were synthesized by solid phase peptide synthesis (SPPS), without the (Gly‐Ser)3 linker.
Figure 2 Discovery of macrocyclic peptide ligands with nanomolar CD59 affinity using mRNA display. a) The selection process. PCR = polymerase chain reaction, SPPS = solid phase peptide synthesis. b) Table showing details of the peptides with nanomolar affinity for CD59 as well as the binding affinity of the lead inhibitor of CD59, rILYd4. K D values are presented as the average of three technical replicates ± SEM. Structures of all peptides and SPR sensograms are presented in Figures S1 and S2. *indicates the presented sequences are the variable regions of these cyclic peptides; each is flanked by an N‐terminal Ac‐D‐Tyr cyclized to a C‐terminal Cys. R6 abundance (%) is defined as (the given number of NGS reads for a given sequence/the total number of reads of unique sequences observed in NGS)*100 following the 6th selection round. c) Representative sensogram of the interaction between CP‐06 with immobilized CD59 by SPR analysis. Inset showing the equilibrium binding curve of CP‐06 to CD‐59. Below in the box are the association and dissociation rate constants of CP‐06. Concentrations are plotted in descending order from 800‐3.1 nM in line with their position on the legend. […] (nM)'; the box with Kon/Koff has no label of its own / ILYd4: the label may be cut off at the left edge (possibly 'rILYd4') / CP-02, KD: 15.3 ± 0.2, small print, 3 or 8 uncertain / CP-03, KD: 23.4 ± 0.7, small print / CP-06, KD: 11.3 ± 0.0, small print, 3 or 8 uncertain / CP-13, KD: 10.8 ± 0.7, small print, 8 or 6 uncertain / ILYd4, KD: 48.3 ± 1.1, small print, 8 and 3 uncertain
The mRNA-display cyclic peptide screen was performed against CD59-biotin by T.E.M: DNA templates for transcription were generated by PCR in a similar manner to that previously described.^2 RNA oligonucleotides were transcribed from the DNA templates using T7 RNA polymerase and purified by phenol/chloroform extraction followed by ethanol precipitation. Oligonucleotide concentrations were determined spectroscopically by absorbance at 260 nm. In the first selection round a 1:1:1 molar ratio of NNK10/NNK11/NNK12 was used. The procedure for selection rounds 2-6 is described below; round 1 was conducted at twice the scale.
RNA encoding for the peptide library ligated to a puromycin-modified oligonucleotide was […] (final [RNA] = 2.5 µM) using a customised PURE express kit (lacking release factor 1 and methionine, supplemented with […] initiator tRNA acylated with N-chloroacetyl-d-tyrosine prepared as previously described)^3 in a final volume of 5.6 µL for 1 hour at 37 °C.
This mixture was incubated at 42 °C for 1 hour before being diluted to 500 µL with PBS (10 mM Na-PO4 pH 7.4, 2.7 mM KCl, 137 mM NaCl) and 0.5 µL taken for subsequent use in qPCR. […]

Sequence: CYGGRTFIYACS
- Percentage Seq I: 0.019%
- Percentage Seq II: 0.021%
- Percentage Average: 0.020%
- Counts Seq I: 83
- Counts Seq II: 9

Sequence: CYGGRTFIYARS
- Percentage Seq I: 0.027%
- Percentage Seq II: 0.016%
- Percentage Average: 0.021%
- Counts Seq I: 117
- Counts Seq II: 7

Sequence: CYGGRTFIYAWL
- Counts (raw counts for peptide sequence), Seq I: 35
- Counts (raw counts for peptide sequence), Seq II: 8
- Percentage of the pool, averaged across the two sequencing samples: 0.013%
- Percentage of the pool, Seq I: 0.008%
- Percentage of the pool, Seq II: 0.019%

Sequence: CYGGRTFIYAWP
- Percentage Seq I: 0.060%
- Percentage Seq II: 0.072%
- Percentage Average: 0.066%
- Counts Seq I: 263
- Counts Seq II: 31

Sequence: CYGGRTFIYAWS
- Percentage Seq I: 8.492%
- Percentage Seq II: 8.097%
- Percentage Average: 8.295%
- Counts Seq I: 37156
- Counts Seq II: 3489

Sequence: CYGGRTFIYAWT
- Percentage Seq I: 0.043%
- Percentage Seq II: 0.035%
- Percentage Average: 0.039%
- Counts Seq I: 190
- Counts Seq II: 15

Sequence: CYGGRTFIYEWS
- Percentage Seq I: 0.037%
- Percentage Seq II: 0.042%
- Percentage Average: 0.040%
- Counts Seq I: 164
- Counts Seq II: 18

Sequence: CYGGRTFIYSWS
- Counts (raw counts for peptide sequence), Seq I: 46
- Counts (raw counts for peptide sequence), Seq II: 8
- Percentage of the pool, averaged across the two sequencing samples: 0.015%
- Percentage of the pool, Seq I: 0.011%
- Percentage of the pool, Seq II: 0.019%

Sequence: CYGGRTFIYTWS
- Counts (raw counts for peptide sequence), Seq I: 74
- Counts (raw counts for peptide sequence), Seq II: 4
- Percentage of the pool, averaged across the two sequencing samples: 0.013%
- Percentage of the pool, Seq I: 0.017%
- Percentage of the pool, Seq II: 0.009%

Sequence: CYGGRTFIYVWS
- Percentage Seq I: 0.038%
- Percentage Seq II: 0.023%
- Percentage Average: 0.031%
- Counts Seq I: 168
- Counts Seq II: 10

Sequence: CYGGRTFTYAWS
- Percentage Seq I: 0.241%
- Percentage Seq II: 0.306%
- Percentage Average: 0.274%
- Counts Seq I: 1056
- Counts Seq II: 132

Sequence: CYGGRTFVYAWS
- Percentage Seq I: 0.103%
- Percentage Seq II: 0.104%
- Percentage Average: 0.104%
- Counts Seq I: 450
- Counts Seq II: 45

Sequence: CYGGRTLIYAWS
- Percentage Seq I: 0.028%
- Percentage Seq II: 0.019%
- Percentage Average: 0.023%
- Counts Seq I: 121
- Counts Seq II: 8

Sequence: CYGGRTSIYAWS
- Percentage Seq I: 0.032%
- Percentage Seq II: 0.023%
- Percentage Average: 0.028%
- Counts Seq I: 142
- Counts Seq II: 10

Sequence: CYGGRTYIYAWS
- Percentage Seq I: 0.018%
- Percentage Seq II: 0.019%
- Percentage Average: 0.018%
- Counts Seq I: 77
- Counts Seq II: 8

Sequence: CYGNSHAS
- Counts (raw counts for peptide sequence), Seq I: 36
- Counts (raw counts for peptide sequence), Seq II: 8
- Percentage of the pool, averaged across the two sequencing samples: 0.013%
- Percentage of the pool, Seq I: 0.008%
- Percentage of the pool, Seq II: 0.019%

Sequence: CYGNSHASWG
- Percentage Seq I: 0.483%
- Percentage Seq II: 0.469%
- Percentage Average: 0.476%
- Counts Seq I: 2115
- Counts Seq II: 202

Sequence: CYGSRTFIYAWS
- Percentage Seq I: 0.026%
- Percentage Seq II: 0.019%
- Percentage Average: 0.022%
- Counts Seq I: 114
- Counts Seq II: 8

Sequence: CYSLRLGPETV
- Counts (raw counts for peptide sequence), Seq I: 37
- Counts (raw counts for peptide sequence), Seq II: 6
- Percentage of the pool, averaged across the two sequencing samples: 0.011%
- Percentage of the pool, Seq I: 0.00846%
- Percentage of the pool, Seq II: 0.014%

Sequence: CYTAGSASWSRG
- Percentage Seq I: 0.726%
- Percentage Seq II: 0.680%
- Percentage Average: 0.703%
- Counts Seq I: 3176
- Counts Seq II: 293

Sequence: CYTYRSLDPQSV
- Counts (raw counts for peptide sequence), Seq I: 42
- Counts (raw counts for peptide sequence), Seq II: 9
- Percentage of the pool, averaged across the two sequencing samples: 0.015%
- Percentage of the pool, Seq I: 0.010%
- Percentage of the pool, Seq II: 0.021%

Sequence: DCWVRGSRNYT
- Counts (raw counts for peptide sequence), Seq I: 62
- Counts (raw counts for peptide sequence), Seq II: 6
- Percentage of the pool, averaged across the two sequencing samples: 0.014%
- Percentage of the pool, Seq I: 0.014%
- Percentage of the pool, Seq II: 0.014%

Sequence: DPICTRYNDPR
- Counts (raw counts for peptide sequence), Seq I: 46
- Counts (raw counts for peptide sequence), Seq II: 5
- Percentage of the pool, averaged across the two sequencing samples: 0.011%
- Percentage of the pool, Seq I: 0.011%
- Percentage of the pool, Seq II: 0.012%

Sequence: DPWCTPFSNVT
- Percentage Seq I: 0.186%
- Percentage Seq II: 0.209%
- Percentage Average: 0.198%
- Counts Seq I: 815
- Counts Seq II: 90

Sequence: DPYCPFFPEFR
- Counts (raw counts for peptide sequence), Seq I: 52
- Counts (raw counts for peptide sequence), Seq II: 5
- Percentage of the pool, averaged across the two sequencing samples: 0.012%
- Percentage of the pool, Seq I: 0.012%
- Percentage of the pool, Seq II: 0.012%

Sequence: DSRNQCHTWKT
- Counts (raw counts for peptide sequence), Seq I: 87
- Counts (raw counts for peptide sequence), Seq II: 6
- Percentage of the pool, averaged across the two sequencing samples: 0.017%
- Percentage of the pool, Seq I: 0.020%
- Percentage of the pool, Seq II: 0.014%

Sequence: DYNRIVWGRGNAAAAAAARTGGG
- Counts (raw counts for peptide sequence), Seq I: 89
- Counts (raw counts for peptide sequence), Seq II: 6
- Percentage of the pool, averaged across the two sequencing samples: 0.017%
- Percentage of the pool, Seq I: 0.020%
- Percentage of the pool, Seq II: 0.014%

Sequence: EARGTKSFAYY
- Percentage Seq I: 0.124%
- Percentage Seq II: 0.100%
- Percentage Average: 0.112%
- Counts Seq I: 544
- Counts Seq II: 43

Sequence: EIRGALNWVRG
- Percentage Seq I: 0.125%
- Percentage Seq II: 0.146%
- Percentage Average: 0.136%
- Counts Seq I: 549
- Counts Seq II: 63

Sequence: FARGDLYSVLG
- Counts (raw counts for peptide sequence), Seq I: 71
- Counts (raw counts for peptide sequence), Seq II: 5
- Percentage of the pool, averaged across the two sequencing samples: 0.014%
- Percentage of the pool, Seq I: 0.016%
- Percentage of the pool, Seq II: 0.012%

Sequence: FARGDRNHQFY
- Counts (raw counts for peptide sequence), Seq I: 63
- Counts (raw counts for peptide sequence), Seq II: 5
- Percentage of the pool, averaged across the two sequencing samples: 0.013%
- Percentage of the pool, Seq I: 0.014%
- Percentage of the pool, Seq II: 0.012%

Sequence: FARGDWNHQFY
- Counts (raw counts for peptide sequence), Seq I: 120
- Counts (raw counts for peptide sequence), Seq II: 3
- Percentage of the pool, averaged across the two sequencing samples: 0.017%
- Percentage of the pool, Seq I: 0.027%
- Percentage of the pool, Seq II: 0.007%

Sequence: FATGNRDHTRG
- Percentage Seq I: 0.027%
- Percentage Seq II: 0.014%
- Percentage Average: 0.020%
- Counts Seq I: 117
- Counts Seq II: 6
